In assay [1] the target is T1, human PD-1 (Programmed Death 1), full-length, expressed on transiently transfected HEK293 cells (human, UniProt Q15116 25-288).
T1 construct: whole, on cells; also called CD279; PDCD1
Briefly: flow cytometry on HEK293 cells transiently transfected with human PD-1; rat anti-mouse IgG secondary. As for the experimental part:
(§1) HEK293 cells were transiently transfected by culturing at 5×10⁶/well with 5 μg human PD-1 DNA and 293 fectin (Invitrogen) overnight in 6 well plates. […] Cells were washed with PBS and incubated with an appropriate secondary antibody, either FITC Mouse anti Human IgG (05-4211 Zymed, 1:20 dilution) or rat anti Mouse IgG (04-6111 Zymed, 1:20 dilution) for 1 hr at 4° C. Flow cytometry analysis was performed on a FACSCalibur (Becton Dickinson).

Assay [2] addresses T1, human PD-1 (Programmed Death 1), …. Briefly: flow cytometry on HEK293 cells transiently transfected with human PD-1; FITC mouse anti-human IgG secondary. The protocol:
as §1

Results on two molecules are retold here after patent US20130095098A1 (UCB, published 2013).

T1 sequence (Q15116 25-288): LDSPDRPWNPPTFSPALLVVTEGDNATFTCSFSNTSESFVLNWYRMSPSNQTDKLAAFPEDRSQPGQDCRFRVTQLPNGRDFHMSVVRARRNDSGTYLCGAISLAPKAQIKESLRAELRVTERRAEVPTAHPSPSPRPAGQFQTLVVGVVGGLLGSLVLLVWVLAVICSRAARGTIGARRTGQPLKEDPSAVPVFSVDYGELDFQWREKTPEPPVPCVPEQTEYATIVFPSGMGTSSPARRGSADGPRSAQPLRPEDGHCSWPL

B1: antibody CA051-00948 (948 murine parental; cloned recombinant antibody derived from hybridoma Clone 10) (antibody, IgG1, V domains shown)
VH: DVQLQESGPGLVKPSQSLSLTCTVTGYSITSDYAWNWIRQFPGNKLEWMGYINYSGSTSYNPSLKSRISITRDTSKNQFFLQLNSVTTEDTATYYCARWIGSSAWYFDVWGAGTTVTVS
VL: DVLMTQTPLSLPVSLGDQASISCRSGQNIVHSNGNTYLEWYLQKPGQSPKLLIYKVSNRFFGVPDRISGSGSGTDFTLKISRVEAEDLGVYFCFQGSHVPFTFGSGTKLEIK
notes: also called Ab948
For the molecule B1, the binding result in assay [1] is “binds”.

B2: 948.g1 (948 humanised graft; gL1 light chain, g1 heavy chain, human gamma-4 S241P / human kappa) (antibody, human IgG4 S228P, kappa, V domains shown)
VH: EVQLQESGPGLVKPSQTLSLTCTVTGYSITSDYAWNWIRQPPGKKLEWMGYINYSGSTSYNPSLKSRVTISRDTSKNQFSLKLSSVTAADTAVYYCARWIGSSAWYFDVWGQGTLVTVSS
VL: DVLMTQTPLSLSVTPGQPASISCRSGQNIVHSNGNTYLEWYLQKPGQSPKLLIYKVSNRFFGVPDRISGSGSGTDFTLKISRVEAEDVGVYFCFQGSHVPFTFGQGTKLEIKR
With B2, the binding result in assay [2] is “binds”.
